Experimental data taken from US20220242963A1, “B-CELL ACTIVATING CD73 ANTIBODIES” (CORVUS PHARMACEUTICALS, INC., priority 2018, published 2022).
Several values for one entry are separate records, joined by “and”; a condition that tells them apart may be missing. Equal entries are not always repeated.

What was measured:
Format in all cases: in vivo, human
[1] = Phase 1/1B clinical trial: adverse events, tolerability
Excerpt: The primary objectives of the study were to show safety and tolerability of the active agents, and the second objectives of the study were to identify PK/PD profiles, drug efficacy, and biomarkers. […] The adenosine gene signature was not used to select patients. The dose expansion includes treatment of non-small cell lung cancer, renal cell carcinoma, non-Hodgkin's lymphoma, and other types of cancers (e.g., bladder, prostate, pancreatic, colorectal, squamous cell cancer of the head and neck). CPI-006 was given as a one hour infusion every three weeks, and for the combination treatments 100 mg po BID of ciforadenant was administered. Biomarker assessment was conducted for the effects of CD73 expression in tumors, peripheral blood lymphocyte subsets, antibody occupancy of target, and serum cytokines.
The baseline demographics of the patients are shown in Table 2 below, and the adverse events are shown in Table 3 (where TEAE refers to treatment-related adverse events based on any grade 3 or 4 events, or 2 or more of all grades).

[2] = system: peripheral B cells, T cells, NK cells, monocytes; assay: Phase 1/1B clinical trial: circulating lymphocyte subsets in whole blood by flow cytometry
Description: (§1) The highest line at day 10 represents 1 mg/kg, the second highest line at day 10 represents 3 mg/kg, the second lowest line at day 10 represents 6 mg/kg, and the lowest line at day 10 represents 12 mg/kg.
Whole blood was collected pre-treatment or at 0.5 hr or 24 hr after administration of CPI-006 as a single agent (left) or in combination with CPI-444 (right). The absolute number of CD19+ B cells, CD3+ T cells, CD3+CD4+ T cells, CD3+CD8+ T cells, and CD3−CD16+CD56+ NK cells were determined by flow cytometry with quantification beads.
Blood was collected pre-treatment or 0.5 hr after administration of CPI-006. The absolute number of CD19^+ B cells, as well as the percentage of B cells positive for CD73, were determined using flow cytometry.
Whole blood samples from the patients treated with a single dose (i.e., 1 mg/kg, 3 mg/kg, or 6 mg/kg) of CPI-006 monotherapy were analyzed by flow cytometry to further evaluate immunomodulatory effects. Levels of B cells (CD19+CD3−) are reported as a percent of total lymphocytes (gated based on scatter properties), as shown in FIG. 4A. CD73 expression was evaluated with a non-competing anti-CD73 antibody and is reported on B cells (CD19+CD3−) and T cells (CD19−CD3+), as shown in FIG. 4B. Purified B cells from healthy human donors were incubated with CPI-006 or human IgG1 isotype control at concentrations of 0.1 μg/mL, 1 μg/mL, and 10 μg/mL for 30 minutes.

solid tumors = assay: Phase 1/1B clinical trial: disease control and tumor size
Excerpt: FIGS. 6A-6B show cancer patients being treated with various doses of CPI-006 alone (FIG. 6A) or a combination therapy of CPI-006 and ciforadenant (FIG. 6B). A cycle is once every 21 days. Disease assessment occurred every 3-4 cycles. […] HDNCK refers to head and neck cancer. mCRPC refers to metastatic castration-resistant prostate cancer. BLADD refers to bladder cancer. PANC refers to pancreatic cancer. COLORECT refers to colorectal cancer. RCC refers to renal cell carcinoma. SD indicates stable disease and PD indicates progressive disease.
as §1
Cancer patients treated with CPI-006 monotherapy or a combination therapy of CPI-006 and ciforadenant were assessed for disease control.

T cell clones = assay: T cell receptor Vb sequencing of peripheral blood (T cell clone frequency)
Description: FIGS. 11A-11C show clonal abundance plots of T cell clones for three patients treated with CP1-006. Sequencing of the Vb region of the T cell receptor was performed to identify the frequency of unique T cell clones in peripheral blood samples collected pre-treatment and on-treatment at 6 weeks of 12 mg/kg CPI-006+ciforadenant (FIG. 11A), 12 mg/kg CPI-006 (FIG. 11B), or 18 mg/kg CPI-006 (FIG. 11C). Expansion of new T cell clones was observed after 6 weeks in 3 of 8 evaluated patients treated with CPI-006.
Immunomodulatory activity of CPI-006 was evaluated in patients administered CPI-006. […] Further, T cell activation was evaluated upon treatment with various dosages of the monotherapy CPI-006 or a combination therapy of CPI-006 and ciforadenant. Once a T cell clone is activated, the clone can expand and produce clonal copies of the original clone. […] The results further affirm CPI-006 is an immunomodulator of CD73 positive cells.

[3] = cancer patients, monotherapy n = 12, combination n = 8

B1: CPI-006: humanized CD73 antibody, wherein the light chain is SEQ ID NO:8 and the heavy chain is SEQ ID NO:7; IgG1 Fcγ receptor-deficient (antibody, V domains shown)
VH: QVQLVQSGAEVEKPGASVKVSCKASGYTFTSYWITWVRQAPGQGLEWMGDIYPGSGNTNYNEKFKTRVTITADKSTSTAYMELSSLRSEDTAVYYCAKEGGLTTEDYALDYWGQGTLVTV
VL: EIVLTQSPATLSLSPGERATLSCRASKNVSTSGYSYMHWYQQKPGQAPRLLIYLASNLESGIPPRFSGSGYGTDFTLTINNIESEDAAYYFCQHSRELPFTFGQGTKVEIK
With B1 the “Adverse Events Number of Patients: Anemia, All Grades” value [1, 3] was 1, the “Adverse Events Number of Patients: Anemia, Grade 3 or 4” value [1, 3] was 1 and the “Adverse Events Number of Patients: Chills, All Grades” value [1, 3] was 4. For the same molecule, the “Adverse Events Number of Patients: Chills, Grade 3 or 4” value [1, 3] was 0, the “Adverse Events Number of Patients: Diarrhea, All Grades” value [1, 3] was 1 and the “Adverse Events Number of Patients: Diarrhea, Grade 3 or 4” value [1, 3] was 0. The “Adverse Events Number of Patients: Fatigue, All Grades” value [1, 3] was 2, the “Adverse Events Number of Patients: Fatigue, Grade 3 or 4” value [1, 3] was 0 and the “Adverse Events Number of Patients: Headache, All Grades” value [1, 3] was 2. For the same molecule, the “Adverse Events Number of Patients: Headache, Grade 3 or 4” value [1, 3] was 0, the “Adverse Events Number of Patients: Infusion-related reaction, All Grades” value [1, 3] was 2 and the “Adverse Events Number of Patients: Infusion-related reaction, Grade 3 or 4” value [1, 3] was 0. For the same molecule, the “Adverse Events Number of Patients: Nausea, All Grades” value [1, 3] was 3, the “Adverse Events Number of Patients: Nausea, Grade 3 or 4” value [1, 3] was 0 and the “Adverse Events Number of Patients: Pruritus, All Grades” value [1, 3] was 2. For the same molecule, the “Adverse Events Number of Patients: Pruritus, Grade 3 or 4” value [1, 3] was 0, the “Adverse Events Number of Patients: Subjects with any TEAE, All Grades” value [1, 3] was 8 and the “Adverse Events Number of Patients: Subjects with any TEAE, Grade 3 or 4” value [1, 3] was 1. The dose-limiting toxicity ([1]; doses of 1, 3, and 6 mg/kg) was “no dose-limiting toxicity”, the tolerability ([1]; doses of 1, 3, and 6 mg/kg) was “well tolerated” and the “grade 3/4 adverse events” value ([1]; patients of Table 4, CPI-006 monotherapy 1, 3, 6 mg/kg) was “No grade 3/4 adverse events were reported”. The “% Decrease of Peripheral B cells at C1D1 (0.5 h)” value ([2]; 3 mg/kg, patients 4-6 (Pancreatic, Pancreatic, Prostate)) was 71.2% and 62.3% and 68.1%, the “CD73POS B cells levels over time” value ([2]; 1 to 12 mg/kg, repeated infusions, FIG. 7C) was “decrease with each infusion of CPI-006, and then partially return to a new steady state level” and the “CD4/CD8 ratios, including CD73NEG subsets” value ([2]; 0.5 hours after administration, FIGS. 7A-7B) was “increase”. The “number of circulating cells, all evaluated lymphocyte subsets (B, T, CD4+ T, CD8+ T, NK)” value ([2]; 0.5 hr post-treatment versus pre-treatment, FIG. 12) was “decreased”, the “number of circulating CD73+ B cells” value ([2]; 0.5 hr post-treatment, FIG. 13) was “substantially decreased” and the “number of circulating CD73− B cells” value ([2]; 0.5 hr post-treatment, FIG. 13) was “either unchanged or modestly decreased”. For the same molecule, the “number of circulating B cells” value ([2]; 24 hr post-treatment, FIG. 12) was “partial return”, the “number of circulating cells, other cell types (T, NK)” value ([2]; 24 hr post-treatment, FIG. 12) was “returned to near baseline levels” and the HLA-DR expression ([2]; cancer patients receiving 6 mg/kg monotherapy, FIG. 7D) was “increase in HLA-DR expression, followed by a gradual decrease”. The B lymphocyte trafficking ([2]; clinical data, FIGS. 4A-4B) was “transient redistribution of B cells”, the “CD73NEG B cells” value ([2]; following treatment) was “No significant changes” and the “size of a prostate tumor” value (solid tumors; after 2 cycles of treatment, i.e., after 42 days, FIG. 7E) was “reduction in the size”. The disease control (solid tumors; cancer patients, cycle once every 21 days, FIGS. 6A-6B) was “higher doses of CPI-006 monotherapy provide longer term disease control”, the target lesion (solid tumors; one metastatic prostate cancer patient, 6 mg/kg monotherapy, treatment ongoing through 11 cycles, FIG. 7E) was “decrease in the target legion” and the “generation of new T cell clones” value (T cell clones; 12 or 18 mg/kg CPI-006, or 12 mg/kg CPI-006 + ciforadenant, 6 weeks, FIGS. 11A-11C) was “new T cell clones were generated”. For the same molecule, the “evaluated patients with expansion of new T cell clones” value (T cell clones; after 6 weeks of treatment, peripheral blood) was 3 of 8.
